Laboratory results: PMC12751054, “Investigating the conformational landscape of human histidine-rich glycoprotein using amide HDX-MS” (Biochemical Journal, 2025)
Each block holds one molecule with its values, some of them ahead of it.

Tests used:
[1] = biological target: Histidine-rich glycoprotein (HRG), enzymatically deglycosylated, purified from human pooled plasma (human) (UniProt P04196); assay: mass photometry; HRG at 50 nM in 50 mM Tris-HCl, 140 mM NaCl, 2 mM EDTA, pH 7.4; TwoMP (Refeyn); monomer and dimer
[2] = biological target: Histidine-rich glycoprotein (HRG), enzymatically deglycosylated, purified from human pooled plasma (human) (UniProt P04196); assay: mass photometry; HRG at 200 nM in 50 mM Tris-HCl, 140 mM NaCl, 2 mM EDTA, pH 7.4; TwoMP (Refeyn); monomer and dimer
[3] = biological target: the molecule itself; assay: mass photometry; HRG at 50 nM in 50 mM Tris-HCl, 140 mM NaCl, 2 mM EDTA, pH 7.4; TwoMP (Refeyn); monomer and dimer

stoichiometry N [1]: 2
stoichiometry N [2]: 2
Molecule: Histidine-rich glycoprotein (HRG), enzymatically deglycosylated, purified from human pooled plasma (from UniProt P04196 19-525) (natural protein)

B1: Histidine-rich glycoprotein (HRG), native (fully glycosylated), purified from human pooled plasma (natural protein, UniProt P04196 19-525, looked up)
chain: VSPTDCSAVEPEAEKALDLINKRRRDGYLFQLLRIADAHLDRVENTTVYYLVLDVQESDCSVLSRKYWNDCEPPDSRRPSEIVIGQCKVIATRHSHESQDLRVIDFNCTTSSVSSALANTKDSPVLIDFFEDTERYRKQANKALEKYKEENDDFASFRVDRIERVARVRGGEGTGYFVDFSVRNCPRHHFPRHPNVFGFCRADLFYDVEALDLESPKNLVINCEVFDPQEHENINGVPPHLGHPFHWGGHERSSTTKPPFKPHGSRDHHHPHKPHEHGPPPPPDERDHSHGPPLPQGPPPLLPMSCSSCQHATFGTNGAQRHSHNNNSSDLHPHKHHSHEQHPHGHHPHAHHPHEHDTHRQHPHGHHPHGHHPHGHHPHGHHPHGHHPHCHDFQDYGPCDPPPHNQGHCCHGHGPPPGHLRRRGPGKGPRPFHCRQIGSVYRLPPLRKGEVLPLPEANFPSFPLPHHKHPLKPDNQPFPQSVSESCPGKFKSGFPQVSMFFTHTFPK
modifications: N-linked glycans at Asn63, Asn125, Asn202 and Asn344; O-linked glycans at Thr273 and Thr274
notes: Histidine-rich glycoprotein, human, UniProt P04196; printed residue numbers run to 525; Pooled plasma; also called native HRG; plasma-derived human HRG
stoichiometry N [3]: 2
